Data from article PMC12183618.

Tests used:
[1] = molecular target: MmpL10‐mEGFP‐FLMsm (Mycobacterium smegmatis); experiment: SEC; Superose 6 Increase 10/300 GL, 50 mM Tris-HCl pH 8, 150 mM NaCl, 3x CMC LMNG (m1 also in DDM and LDAO); apparent MW from a calibration curve
[2] = molecular target: MmpL10‐mEGFP‐FLMsm (Mycobacterium smegmatis); experiment: negative-stain electron microscopy; top SEC peak fraction in LMNG at 0.5 μM, uranyl acetate 1%; low-resolution map, C1 symmetry, fitted with a trimeric AlphaFold v3 model

stoichiometry N [1]: 3
stoichiometry N [2]: 3
Substance: MmpL10‐mEGFP‐FLMsm (natural protein)
